Data reported in the supplement of paper PMC9112550, “Optimization of the antimicrobial peptide Bac7 by deep mutational scanning” (BMC Biology, 2022).

System: Escherichia coli TOP10
Assay: shrunken log2 fold change of peptide-encoding DNA abundance (4.5 h post-induction vs induction); higher = less antimicrobial activity (less host growth inhibition)
Details: time post-induction: 4.5 h; library: site-saturation at positions 5, 18, 19, 20
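Also: peptides expressed intracellularly from a pBAD plasmid library in pooled LB shake-flask culture, induced with 0.3% L-arabinose, DNA abundance read by NGS, three biological replicates, DESeq2 with apeglm shrinkage.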

Row | Sequence | shrunken log2 fold change
1 | RRIRCRPPRLPRPRPRPEFLPRP | -0.091
2 | RRIRLRPPRLPRPRPRPALFPRP | 0.488
3 | RRIRARPPRLPRPRPRPESWPRP | 1.49
4 | RRIRSRPPRLPRPRPRPLGAPRP | 0.295
5 | RRIRYRPPRLPRPRPRPHEKPRP | -0.00489
6 | RRIRERPPRLPRPRPRPGTSPRP | 1.87
7 | RRIRNRPPRLPRPRPRPCVWPRP | -0.024
8 | RRIRTRPPRLPRPRPRPFGEPRP | -0.101
9 | RRIRWRPPRLPRPRPRPIPFPRP | -0.102
10 | RRIRPRPPRLPRPRPRPCHLPRP | -0.148
11 | RRIRWRPPRLPRPRPRPIYRPRP | 0.0155
12 | RRIRQRPPRLPRPRPRPQCSPRP | -0.203
13 | RRIRKRPPRLPRPRPRPWSLPRP | 0.0414
14 | RRIRFRPPRLPRPRPRPPPYPRP | 0.445
15 | RRIRVRPPRLPRPRPRPLQQPRP | -0.55
16 | RRIRSRPPRLPRPRPRPLGTPRP | -0.216
17 | RRIRGRPPRLPRPRPRPHFKPRP | 0.178
18 | RRIRYRPPRLPRPRPRPTEEPRP | -0.2
19 | RRIRQRPPRLPRPRPRPAMYPRP | -0.244
20 | RRIRVRPPRLPRPRPRPEEDPRP | 0.0704
21 | RRIRTRPPRLPRPRPRPGPRPRP | 0.716
22 | RRIRNRPPRLPRPRPRPNDRPRP | -0.218
23 | RRIRERPPRLPRPRPRPFQEPRP | -0.0402
24 | RRIRERPPRLPRPRPRPIQMPRP | -0.14
25 | RRIRQRPPRLPRPRPRPKSWPRP | 0.19

Row | Sequence | shrunken log2 fold change
26 | RRIRARPPRLPRPRPRPTMWPRP | 0.516
27 | RRIRIRPPRLPRPRPRPIAAPRP | 0.0481
28 | RRIRTRPPRLPRPRPRPEDHPRP | -0.0554
29 | RRIRWRPPRLPRPRPRPGKDPRP | -0.222
30 | RRIRWRPPRLPRPRPRPKLDPRP | 0.206
31 | RRIRTRPPRLPRPRPRPFRTPRP | -0.146
32 | RRIRKRPPRLPRPRPRPCKDPRP | 0.0741
33 | RRIRWRPPRLPRPRPRPDECPRP | -0.012
34 | RRIRDRPPRLPRPRPRPIMSPRP | -0.0134
35 | RRIRIRPPRLPRPRPRPADAPRP | -0.291
36 | RRIRPRPPRLPRPRPRPRREPRP | 0.187
37 | RRIRTRPPRLPRPRPRPNGAPRP | -0.0908
38 | RRIRVRPPRLPRPRPRPNQHPRP | -0.289
39 | RRIRMRPPRLPRPRPRPDFQPRP | -0.0477
40 | RRIRDRPPRLPRPRPRPIVTPRP | 0.171
41 | RRIRTRPPRLPRPRPRPDHTPRP | -0.145
42 | RRIRTRPPRLPRPRPRPQKSPRP | -0.0823
43 | RRIRVRPPRLPRPRPRPEQHPRP | 0.262
44 | RRIRKRPPRLPRPRPRPQNSPRP | -0.0372
45 | RRIRWRPPRLPRPRPRPSSGPRP | -0.00985
46 | RRIRYRPPRLPRPRPRPSIVPRP | -0.912
47 | RRIRCRPPRLPRPRPRPHASPRP | -0.224
48 | RRIRKRPPRLPRPRPRPQDQPRP | 0.325
49 | RRIRLRPPRLPRPRPRPPFCPRP | 0.701
50 | RRIRSRPPRLPRPRPRPSPPPRP | 0.154

Row | Sequence | shrunken log2 fold change
51 | RRIRRRPPRLPRPRPRPVKMPRP | 0.101
52 | RRIRIRPPRLPRPRPRPPIDPRP | -0.724
53 | RRIRQRPPRLPRPRPRPNYMPRP | -0.226
54 | RRIRARPPRLPRPRPRPFKKPRP | -0.0888
55 | RRIRTRPPRLPRPRPRPQLEPRP | 0.341
56 | RRIRCRPPRLPRPRPRPIVPPRP | -0.298
57 | RRIRTRPPRLPRPRPRPWFCPRP | -0.392
58 | RRIRKRPPRLPRPRPRPVCTPRP | 2.01
59 | RRIRLRPPRLPRPRPRPGIHPRP | -0.322
60 | RRIRPRPPRLPRPRPRPSGPPRP | -0.174
61 | RRIRLRPPRLPRPRPRPMDWPRP | -0.0759
62 | RRIRERPPRLPRPRPRPPGVPRP | 0.232
63 | RRIRCRPPRLPRPRPRPVMWPRP | 0.131
64 | RRIRMRPPRLPRPRPRPYEKPRP | -0.111
65 | RRIRLRPPRLPRPRPRPLLFPRP | -0.242
66 | RRIRVRPPRLPRPRPRPMVAPRP | -0.148
67 | RRIRVRPPRLPRPRPRPFCKPRP | -0.144
68 | RRIRPRPPRLPRPRPRPIWNPRP | -0.282
69 | RRIRERPPRLPRPRPRPYPMPRP | -0.172
70 | RRIRERPPRLPRPRPRPWMNPRP | -0.0137
71 | RRIRSRPPRLPRPRPRPMFKPRP | -0.407
72 | RRIRQRPPRLPRPRPRPNLGPRP | 0.0673
73 | RRIRNRPPRLPRPRPRPMAEPRP | 0.0284
74 | RRIRCRPPRLPRPRPRPVWMPRP | -0.179
75 | RRIRLRPPRLPRPRPRPEYTPRP | -0.0657

Row | Sequence | shrunken log2 fold change
76 | RRIRWRPPRLPRPRPRPKFRPRP | 0.077
77 | RRIRIRPPRLPRPRPRPLTAPRP | 0.00505
78 | RRIRLRPPRLPRPRPRPTMDPRP | -0.0334
79 | RRIRTRPPRLPRPRPRPTTIPRP | -0.111
80 | RRIRKRPPRLPRPRPRPVQMPRP | 0.241
81 | RRIRNRPPRLPRPRPRPYSWPRP | -0.814
82 | RRIRMRPPRLPRPRPRPNKKPRP | -0.0238
83 | RRIRVRPPRLPRPRPRPLQTPRP | 0.158
84 | RRIRTRPPRLPRPRPRPQTSPRP | 0.413
85 | RRIRNRPPRLPRPRPRPFTEPRP | -0.236
86 | RRIRQRPPRLPRPRPRPCMAPRP | -0.117
87 | RRIRLRPPRLPRPRPRPDENPRP | 0.087
88 | RRIRGRPPRLPRPRPRPFIHPRP | 0.0282
89 | RRIRYRPPRLPRPRPRPTCYPRP | -0.582
90 | RRIRLRPPRLPRPRPRPRKSPRP | 0.376
91 | RRIRDRPPRLPRPRPRPGMIPRP | 0.133
92 | RRIRDRPPRLPRPRPRPHMAPRP | -0.232
93 | RRIRFRPPRLPRPRPRPAFAPRP | 0.33
94 | RRIRVRPPRLPRPRPRPMPAPRP | 0.149
95 | RRIRYRPPRLPRPRPRPMNSPRP | -0.0134
96 | RRIRIRPPRLPRPRPRPPLWPRP | 0.504
97 | RRIRDRPPRLPRPRPRPMKLPRP | -0.0161
98 | RRIRPRPPRLPRPRPRPYDQPRP | -0.15
99 | RRIRSRPPRLPRPRPRPCCGPRP | 0.983
100 | RRIRNRPPRLPRPRPRPQFEPRP | -0.013

Row | Sequence | shrunken log2 fold change
101 | RRIRVRPPRLPRPRPRPVWTPRP | 0.155
102 | RRIRYRPPRLPRPRPRPSWKPRP | -0.111
103 | RRIRLRPPRLPRPRPRPDWKPRP | 0.0269
104 | RRIRFRPPRLPRPRPRPNLHPRP | -0.235
105 | RRIRYRPPRLPRPRPRPEQMPRP | 0.195
106 | RRIRLRPPRLPRPRPRPKKGPRP | -0.166
107 | RRIRGRPPRLPRPRPRPHNGPRP | 0.0528
108 | RRIRKRPPRLPRPRPRPLHYPRP | -0.00227
109 | RRIRNRPPRLPRPRPRPWFLPRP | -0.0768
110 | RRIRKRPPRLPRPRPRPRPAPRP | 0.758
111 | RRIRDRPPRLPRPRPRPHKWPRP | -0.202
112 | RRIRMRPPRLPRPRPRPHGQPRP | 0.155
113 | RRIRYRPPRLPRPRPRPEIIPRP | -0.0841
114 | RRIRYRPPRLPRPRPRPSFDPRP | -1.2
115 | RRIRDRPPRLPRPRPRPQFCPRP | -0.137
116 | RRIRQRPPRLPRPRPRPPRQPRP | 0.101
117 | RRIRRRPPRLPRPRPRPNCNPRP | -0.0828
118 | RRIRARPPRLPRPRPRPAWDPRP | 0.858
119 | RRIRKRPPRLPRPRPRPYYIPRP | -0.372
120 | RRIRPRPPRLPRPRPRPGDFPRP | -0.0208
121 | RRIRQRPPRLPRPRPRPRTDPRP | 0.00812
122 | RRIRTRPPRLPRPRPRPIKFPRP | -0.0306
123 | RRIRERPPRLPRPRPRPMMQPRP | -0.0983
124 | RRIRDRPPRLPRPRPRPPAYPRP | -0.0668
125 | RRIRHRPPRLPRPRPRPADAPRP | -0.0349
